From patent publication US20050227296A1 (GENERAL HOSPITAL CORPORATION A MASSACHUSETTS, published 2005) come the findings set out here.

This test addresses T1, complement iC3b on erythrocytes (EAiC3b) (human, UniProt P01024 23-667; P01024 749-1303; P01024 1321-1663, limits assumed).
T1 construct: iC3b is a multi-chain fragment of C3; also called human iC3b
As to the kind of experiment: fluoresceinated EAiC3b on immobilized protein.

T1 sequence (P01024 23-667 limits assumed, chain 1 of 3): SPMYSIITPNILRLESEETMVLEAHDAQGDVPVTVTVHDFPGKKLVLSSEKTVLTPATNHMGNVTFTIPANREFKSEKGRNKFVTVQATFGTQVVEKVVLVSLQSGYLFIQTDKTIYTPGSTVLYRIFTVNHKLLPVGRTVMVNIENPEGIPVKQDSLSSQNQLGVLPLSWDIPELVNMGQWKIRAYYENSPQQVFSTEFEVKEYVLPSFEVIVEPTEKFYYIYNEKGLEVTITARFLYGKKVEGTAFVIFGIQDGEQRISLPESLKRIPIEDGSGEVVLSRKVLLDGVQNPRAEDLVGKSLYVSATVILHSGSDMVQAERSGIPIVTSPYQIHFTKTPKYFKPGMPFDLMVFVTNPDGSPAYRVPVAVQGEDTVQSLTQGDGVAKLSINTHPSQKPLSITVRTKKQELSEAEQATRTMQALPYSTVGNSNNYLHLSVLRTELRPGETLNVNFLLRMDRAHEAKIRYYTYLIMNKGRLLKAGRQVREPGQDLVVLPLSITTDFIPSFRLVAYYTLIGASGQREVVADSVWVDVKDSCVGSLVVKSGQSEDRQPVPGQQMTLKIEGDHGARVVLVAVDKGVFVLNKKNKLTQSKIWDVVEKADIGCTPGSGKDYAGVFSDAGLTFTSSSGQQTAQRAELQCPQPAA
T1 sequence (P01024 749-1303 limits assumed, chain 2 of 3): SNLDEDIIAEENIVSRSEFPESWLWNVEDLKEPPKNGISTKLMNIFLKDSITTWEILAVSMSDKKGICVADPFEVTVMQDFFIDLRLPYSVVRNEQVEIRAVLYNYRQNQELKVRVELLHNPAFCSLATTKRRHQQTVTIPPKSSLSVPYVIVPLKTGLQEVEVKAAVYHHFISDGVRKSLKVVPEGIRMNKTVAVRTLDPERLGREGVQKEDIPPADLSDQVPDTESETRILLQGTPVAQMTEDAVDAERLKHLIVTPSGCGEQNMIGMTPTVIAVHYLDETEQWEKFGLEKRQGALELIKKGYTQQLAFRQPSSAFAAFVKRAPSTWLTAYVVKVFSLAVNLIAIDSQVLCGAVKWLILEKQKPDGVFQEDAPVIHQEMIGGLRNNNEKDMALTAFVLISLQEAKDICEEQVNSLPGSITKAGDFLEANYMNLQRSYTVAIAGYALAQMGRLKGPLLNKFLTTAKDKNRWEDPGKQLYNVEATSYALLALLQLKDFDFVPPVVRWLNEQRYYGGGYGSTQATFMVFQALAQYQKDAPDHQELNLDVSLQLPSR
T1 sequence (P01024 1321-1663 limits assumed, chain 3 of 3): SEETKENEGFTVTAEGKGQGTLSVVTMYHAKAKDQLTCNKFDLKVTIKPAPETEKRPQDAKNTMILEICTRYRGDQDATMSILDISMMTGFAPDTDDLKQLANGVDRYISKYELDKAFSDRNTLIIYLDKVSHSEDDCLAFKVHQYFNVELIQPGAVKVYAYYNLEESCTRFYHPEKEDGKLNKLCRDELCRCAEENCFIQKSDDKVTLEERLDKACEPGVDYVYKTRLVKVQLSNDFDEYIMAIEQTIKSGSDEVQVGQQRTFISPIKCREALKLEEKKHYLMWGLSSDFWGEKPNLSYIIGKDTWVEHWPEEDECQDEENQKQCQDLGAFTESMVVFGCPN
Protocol: For the inhibition studies, E were preincubated with each recombinant protein or pure peptide in the presence of 2% BSA for 5 minutes at RT and added to wells coated with immobilized protein or peptide without washing, unless otherwise indicated. At the end of the binding reactions, wells were washed, examined briefly by light microscopy then solubilized with 1% SDS-0.2 N NaOH. Fluorescence was quantified (excitatory wavelength, 490 nm, emission wavelength, 510 nm) using a SLM 8000 fluorometer (SLM Instruments, Urbana, Ill.). In experiments where the effects of individual divalent cations were measured, Ca²⁺ and Mg²⁺ were replaced with metal-free buffers or with buffers containing each cation at 1. MM, unless otherwise indicated. The effect of temperature was evaluated in the presence of 1 mM MnCl₂ at 37° C. and at 4° C.

B1: recombinant CD11a A domain (receptor, human, UniProt P20701 153-332, looked up)
chain: GNVDLVFLFDGSMSLQPDEFQKILDFMKDVMKKLSNTSYQFAAVQFSTSYKTEFDFSDYVKRKDPDALLKHVKHMLLLTNTFGAINYVATEVFREELGARPDATKVLIIITDGEATDSGNIDAAKDIIRYIIGIGKHFQTKESQETLHKFASKPASEFVKILDTFEKLKDLFTELQKKIY
notes: domain: A domain; Expressed as a GST fusion in E. coli, used as such or released by thrombin; also called r11aA; rCD11a A-domain
On to B1, for which the binding result is listed as “no binding”.
